Data as given in US20220380473A1, “ANTI-GAL3 ANTIBODIES AND USES THEREOF” (TrueBinding, Inc., priority 2019, published 2022).

Legend:
a-SMA and fibronectin = test: N-IF mouse liver fibrosis, western blot of fibrosis markers; type: in vivo; conditions: 10 mg/kg every fourth day for 40 days, vs mIgG2b
Method: N-IF mice were generated by crossing 24αβNOD mice and NOD.Rag2−/− mouse strains. The N-IF mice were backcrossed with the B6.Rag2−/− mouse strains for 10 generations. Mice (male and female) were separated into two groups: IMT001 antibody treatment group and mIgG2b antibody control group. Antibodies were administered to the animals every fourth day for 40 days, at 10 mg/kg body weight and the animals were subsequently sacrificed. All efforts were made to minimize suffering. Liver and Kidney tissues were collected and snap frozen in liquid nitrogen for western blot analysis. Tissue processing and western blot analysis were performed as in Example 19. GAPDH was used a loading control reference.

hGal3 peptides = test: ELISA of antibody binding to hGal3 peptides (Example 14); set-up: species or system human; conditions: 0.1 ug/ml antibody
Method: A library of 20 amino acid peptides each representing a certain regions of hGal3 (SEQ ID NO: 1) was produced. At least 2 ug/ml of the produced hGal3 peptide: peptide 1 (SEQ ID NO: 3), 5 (SEQ ID NO: 7), 6 (SEQ ID NO: 8), 8 (SEQ ID NO: 10), or 23 (SEQ ID NO: 25) in 50 ul of PBS was added to the wells of a 96-well ELISA plate (Thermo Fisher, 44-2404-21). As a positive control, 0.1 ug/ml of full-length human Galectin-3 protein (Acro Biosystems, GA3-H5129) in 100 ul of PBS was added to the wells of the ELISA plate. After incubating the plate at 4° C. overnight, the plate was washed three times with 300 ul of PBST per well. The plate was then blocked for an hour with 200 ul of 2% BSA in PBST per well at room temperature with gentle rocking. Thereafter, the 2% BSA in PBST was removed and 100 ul of 0.1 ug/ml of antibody in 2% BSA in PBST was added to the wells (FIG. 17A-B). As for negative control group, the antibodies were applied without the hGal3 peptides or the hGal3 protein.
The plate was incubated for an hour at room temperature with gentle rocking and then washed three times with 300 μl of PBST per well. […] The reaction was stopped with 50 ul of 1M HCl (VWR) per well and the plate was read using a plate reader (Molecular Devices) at absorbance of 450 nm.

[1] = tested on: mouse bleomycin-induced lung fibrosis model; test: Mouse bleomycin-induced lung fibrosis model; type: in vivo
Method: Fibrosis of the lung represents an additional significant form of fibrotic disease with significant health impacts in humans. To evaluate if the anti-fibrotic effects of GAL3-TIM3 blockade extend into the setting of lung fibrosis, a mouse bleomycin-induced lung fibrosis model was evaluated for sensitivity to mIMT001. Briefly, C57Blck/6 male mice were injected intra-tracheally with 30 ug of Bleomycin Sulfate (MP biomedicals, cat #190306) reconstituted in 50 ul of PBS. Mice were treated on day 18, 20, 22, and 24 with mIgG2b isotype control, anti-GAL3 antibody (mIMT001) (10 mg/kg) by tail vein injection, or small molecule TD139 (Med Chem Express, cat #HY-19940) at 10 uM in 50 ul of Captisol (Med Chem Express, cat #HY-17031) injected intra-tracheally. Mice were sacrificed on day 27 and lungs were surgically dissected and fixed in 4% paraformaldehyde for 24 hours, exchanged into 70% ethanol, and embedded in paraffin. Lung fibrosis in fixed specimens was evaluated by Masson's trichrome staining kit (26367) from Electron Microscopy Sciences (Hatfield, Pa.). […] lung sections were affixed to glass slides, After deparaffinization, rehydration in serial ethanol baths. Staining was performed by incubating in Bouin's fixative for 1 h at 56 degree, staining with Briebrich Scarlet/acid fuchsin, Phosphomolybdic Acid-Phosphotungstic Acid and Aniline Blue, then differentiated in acetic acid, prior to their dehydration, clearing and mounting.

4T1 cells = test: 4T1 orthotopic tumor induced lung metastasis model; type: in vivo, mouse; conditions: 10 mg/Kg i.p., day 30, vs isotype control
Method: On the day of tumor implantation, 4T1 cells were collected, washed and resuspended in PBS. Mice were anesthetized by inhalation anesthetic (3 to 5% Isoflurane in medical grade air). 2×10^5 cells in 0.1 mL PBS were subcutaneously injected into the mammary gland by using a syringe with a 25-ga needle. Mice were randomly assigned into two groups (n=10). […] The tumor volumes and body weights were monitored twice per week. On day 30, the mice were humanely sacrificed and lung tissues were inflated with 30% sucrose, removed and fixed in Bouin's solution (Sigma-Aldrich). […] Results were expressed as mean±SEM.

[2] = tested on: human dendritic cells (DC), M1 and M2 macrophage cells; test: Flow cytometry staining of human DC, M1 and M2 macrophages; type: cell-based; conditions: 10 μg/ml
Method: First Human CD14 monocytes were isolated from peripheral blood mononuclear cells (PBMC) with a CD14 cell positive selection kit (Miltenyi, Auburn, Calif.) and differentiated into dendritic cells (DC), or into M1 macrophages, or into M2 macrophages in the presence of GM-CSF plus IL-4, or GM-CSF, or M-CSF (Rocky Hill, N.J.), respectively. Then flow cytometry analysis was performed to detect Gal3 expression on human dendritic cells (DC), M1 and M2 macrophage cells. In details, 100,000 DC, M1 or M2 cells were incubated with 100 μl 10% FBS HBSS solution that contains with control mIgG-biotin (BioLegend) or IMT001-biotin at 10 μg/ml on ice for 20 minutes. Then cells were washed and incubated with PE-streptavidin (BioLegend) at 1:1000 on ice for 20 min. After spinning, live/dead cells were stained with Violet dead cell stain kit (Life Technologies). Stained cells were subjected to flow analysis.

B1: IMT001: anti-Gal3 monoclonal antibody (Immutics); printed as mIMT001 (IMT001), murine (antibody, V domains shown)
VH: QIQLVQSGPELKKPGETVKISCKASGYTFTNYGMNWVKQAPGKGLKWMGWINTNTGEPTYVEEFKGRFAFSLETSASTAYLQINNLKNEDTATYFCAPYDNFFAYWGQGTLVTVSA
VL: DIVITQDELSNPVTSGESVSISCRSSKSLLYKDGKTYLNWFLQRPGQSPQLLIYLMSTHASGVSDRFSGSGSGTDFTLEISRVKAEDVGVYYCQQLVDYPLTFGAGTKLELK
expression of fibrotic markers a-SMA and fibronectin in liver (a-SMA and fibronectin): significant reductions
hGal3 peptides bound (hGal3 peptides): 5 (SEQ ID NO: 7), 6 (SEQ ID NO: 8), and 8 (SEQ ID NO: 10)
Ashcroft score ([1]; 10 mg/kg tail vein day 18, 20, 22, 24, isotype 5.74): 4.09
decrement in fibrotic injury ([1]; vs isotype control): 29%
lung fibrosis, Masson's trichrome ([1]; vs isotype control): substantially reduced
lung metastatic number (4T1 cells): significant reduction of lung metastatic number
staining of dendritic cells and M1 macrophages [2]: could not be stained
mean fluorescence intensity (MFI) of stained M2 cells vs isotype control ([2]; human M2 macrophages): much higher
